# Reference: IntAct's records for PubMed 20095964
# B1: Junctophilin-2 (Mus musculus), Q9ET78 (parent)
# chain: MSGGRFDFDDGGAYCGGWEGGKAHGHGLCTGPKGQGEYSGSWNFGFEVAGVYTWPSGNTFEGYWSQGKRHGLGIETKGRWLYKGEWTHGFKGRYGIRQSTNSGAKYEGTWNNGLQDGYGTETYADGGTYQGQFTNGMRHGYGVRQSVPYGMAVVVRSPLRTSLSSLRSEHSNGTVAPDSPAADGPMLPSPPVPRGGFALTLLATAEAARPQGLFTRGTLLGRLRRSESRTSLGSQRSRLSFLKSELSSGASDAASTGSLAEGAEGPDDAAAPFDADIDATTTETYMGEWKNDKRSGFGVSERSSGLRYEGEWLDNLRHGYGRTTLPDGHREEGKYRHNVLVKGTKRRVLPLKSSKVRQKVEHGVEGAQRAAAIARQKAEIAASRTSHAKAKAEAAEQAALAANQESNIARTLAKELAPDFYQPGPEYQKRRLLQEILENSESLLEPPERGLGTGLPERPRESPQLHERETPQPEGGPPSPAGTPPQPKRPRPGASKDGLLSPGSWNGEPGGEGSRPATPSDGAGRRSPARPASEHMAIEALQPPPAPSQEPEVAMYRGYHSYAVRTGPPEPPPLEDEQEPEPEPEPEVRRSDSAPPSPVSATVPEEEPPAPRSPVPAKQATLEPKPIVPKAEPKAKARKTEARGLSKAGAKKKGRKEVAQAKEAEVEVEEVPNTVLICMVILLNIGLAILFVHLLT
# partner: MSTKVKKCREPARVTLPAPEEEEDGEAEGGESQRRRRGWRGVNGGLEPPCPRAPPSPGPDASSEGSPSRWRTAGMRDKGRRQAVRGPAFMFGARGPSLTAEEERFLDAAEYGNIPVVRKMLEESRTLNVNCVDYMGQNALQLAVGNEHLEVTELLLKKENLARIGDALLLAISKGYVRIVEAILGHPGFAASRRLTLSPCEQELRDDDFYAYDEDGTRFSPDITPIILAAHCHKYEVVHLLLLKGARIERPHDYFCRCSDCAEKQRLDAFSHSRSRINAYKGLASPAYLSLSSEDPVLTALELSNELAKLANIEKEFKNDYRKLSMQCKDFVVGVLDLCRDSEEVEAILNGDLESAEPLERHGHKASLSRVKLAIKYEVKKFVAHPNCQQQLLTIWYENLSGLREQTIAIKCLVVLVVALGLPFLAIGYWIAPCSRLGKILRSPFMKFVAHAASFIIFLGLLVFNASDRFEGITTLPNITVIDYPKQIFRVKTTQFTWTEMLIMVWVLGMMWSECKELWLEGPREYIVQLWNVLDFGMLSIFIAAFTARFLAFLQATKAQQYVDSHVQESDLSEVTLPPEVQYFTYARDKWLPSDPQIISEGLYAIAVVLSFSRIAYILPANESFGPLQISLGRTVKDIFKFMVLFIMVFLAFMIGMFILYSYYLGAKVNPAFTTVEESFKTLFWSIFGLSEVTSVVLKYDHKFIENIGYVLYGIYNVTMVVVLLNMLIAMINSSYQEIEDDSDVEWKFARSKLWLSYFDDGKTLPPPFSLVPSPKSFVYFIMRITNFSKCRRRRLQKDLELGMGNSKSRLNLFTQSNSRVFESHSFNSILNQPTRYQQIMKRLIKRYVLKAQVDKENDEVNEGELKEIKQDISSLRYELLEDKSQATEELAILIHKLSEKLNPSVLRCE
# Variants of: B1
# Conditions: with trpc3_mouse Trpc3, Q9QZC1
row,Variant,effect of a mutation on the interaction
1,S165F,decreasing interaction
